Assay results published in publication PMC11897886 (Nucleic Acids Research, 2024).

T1: CBP-Upf1-FL (S.c. Upf1 full-length) (S. cerevisiae, UniProt P30771 1-971)
T1 sequence: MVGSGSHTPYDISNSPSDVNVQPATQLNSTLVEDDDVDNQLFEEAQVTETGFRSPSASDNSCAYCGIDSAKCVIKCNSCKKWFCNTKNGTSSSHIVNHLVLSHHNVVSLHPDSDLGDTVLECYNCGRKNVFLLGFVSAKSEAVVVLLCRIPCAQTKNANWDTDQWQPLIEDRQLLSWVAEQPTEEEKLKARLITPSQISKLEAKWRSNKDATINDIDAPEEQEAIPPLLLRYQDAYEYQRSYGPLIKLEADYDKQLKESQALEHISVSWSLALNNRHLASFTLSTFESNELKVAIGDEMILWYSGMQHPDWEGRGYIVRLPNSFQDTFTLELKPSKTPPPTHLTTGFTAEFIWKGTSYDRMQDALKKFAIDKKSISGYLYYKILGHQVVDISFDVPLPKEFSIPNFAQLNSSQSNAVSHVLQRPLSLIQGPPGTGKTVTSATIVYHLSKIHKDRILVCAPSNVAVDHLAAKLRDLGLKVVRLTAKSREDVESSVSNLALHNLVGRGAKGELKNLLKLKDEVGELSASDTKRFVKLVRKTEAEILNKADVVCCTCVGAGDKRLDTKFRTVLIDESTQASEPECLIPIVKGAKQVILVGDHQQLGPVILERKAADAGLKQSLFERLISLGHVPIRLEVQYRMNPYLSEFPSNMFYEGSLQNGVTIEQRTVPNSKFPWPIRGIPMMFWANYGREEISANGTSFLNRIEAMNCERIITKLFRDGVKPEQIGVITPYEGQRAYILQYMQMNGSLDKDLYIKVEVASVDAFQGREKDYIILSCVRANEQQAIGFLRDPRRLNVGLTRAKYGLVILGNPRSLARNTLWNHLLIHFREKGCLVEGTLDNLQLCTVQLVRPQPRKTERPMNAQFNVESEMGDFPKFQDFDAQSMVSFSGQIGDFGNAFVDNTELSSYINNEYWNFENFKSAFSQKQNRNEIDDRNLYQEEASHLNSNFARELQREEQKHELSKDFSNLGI

T2: CBP-Upf1-CH-HD (S. cerevisiae, UniProt P30771 54-851)
T2 sequence: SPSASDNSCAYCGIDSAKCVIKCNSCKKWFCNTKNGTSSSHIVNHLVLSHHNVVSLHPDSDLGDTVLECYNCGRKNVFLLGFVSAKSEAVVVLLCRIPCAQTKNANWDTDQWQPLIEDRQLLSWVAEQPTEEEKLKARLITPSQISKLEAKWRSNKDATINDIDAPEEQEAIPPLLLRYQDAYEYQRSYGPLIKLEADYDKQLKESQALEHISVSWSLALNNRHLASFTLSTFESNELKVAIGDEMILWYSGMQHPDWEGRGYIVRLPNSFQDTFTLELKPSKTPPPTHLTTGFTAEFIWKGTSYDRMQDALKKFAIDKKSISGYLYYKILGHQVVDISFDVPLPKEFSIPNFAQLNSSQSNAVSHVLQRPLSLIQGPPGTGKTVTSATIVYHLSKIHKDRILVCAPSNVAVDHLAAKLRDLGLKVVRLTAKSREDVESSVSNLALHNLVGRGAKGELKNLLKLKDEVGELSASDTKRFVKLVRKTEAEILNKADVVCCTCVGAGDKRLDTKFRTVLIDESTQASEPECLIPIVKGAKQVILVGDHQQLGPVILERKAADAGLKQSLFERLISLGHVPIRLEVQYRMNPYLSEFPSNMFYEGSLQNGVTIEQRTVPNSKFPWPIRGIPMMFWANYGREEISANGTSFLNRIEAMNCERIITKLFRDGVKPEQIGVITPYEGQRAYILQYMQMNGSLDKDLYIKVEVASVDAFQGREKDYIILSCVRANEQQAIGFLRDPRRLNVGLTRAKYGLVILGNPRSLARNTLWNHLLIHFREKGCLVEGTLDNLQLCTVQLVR

T3: Dcp2-UBM (Saccharomyces cerevisiae, UniProt P53550 434-720)
T3 sequence: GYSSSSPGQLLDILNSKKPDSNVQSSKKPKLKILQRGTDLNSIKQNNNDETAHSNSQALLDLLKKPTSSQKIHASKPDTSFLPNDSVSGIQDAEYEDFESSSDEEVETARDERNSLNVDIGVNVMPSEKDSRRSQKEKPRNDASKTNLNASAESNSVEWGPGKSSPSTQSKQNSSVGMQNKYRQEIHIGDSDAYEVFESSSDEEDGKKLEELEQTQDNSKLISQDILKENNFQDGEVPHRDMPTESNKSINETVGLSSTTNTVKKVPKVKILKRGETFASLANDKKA

T4: Upf1-FL;Nmd4;Dcp2-UBM (Saccharomyces cerevisiae;Saccharomyces …, UniProt P30771;Q12129;P53550 1-971;1-218;434-720, ||)
T4 sequence 1: T1 sequence
T4 sequence 2: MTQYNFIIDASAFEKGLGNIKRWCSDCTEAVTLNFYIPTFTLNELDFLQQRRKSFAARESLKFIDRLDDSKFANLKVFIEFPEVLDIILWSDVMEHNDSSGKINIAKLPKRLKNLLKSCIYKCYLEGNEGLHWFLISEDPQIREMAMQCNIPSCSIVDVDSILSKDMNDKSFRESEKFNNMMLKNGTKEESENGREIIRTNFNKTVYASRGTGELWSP
T4 sequence 3: T3 sequence

T5: Upf1-FL;Dcp2-UBM (Saccharomyces cerevisiae;Saccharomyces …, UniProt P30771;P53550 1-971;434-720, |)
T5 sequence 1: T1 sequence
T5 sequence 2: T3 sequence

T6: Upf1-FL (Saccharomyces cerevisiae, UniProt P30771 1-971)
T6 sequence: T1 sequence

T7: Upf2-Ct (Saccharomyces cerevisiae, UniProt P38798 933-1089)
T7 sequence: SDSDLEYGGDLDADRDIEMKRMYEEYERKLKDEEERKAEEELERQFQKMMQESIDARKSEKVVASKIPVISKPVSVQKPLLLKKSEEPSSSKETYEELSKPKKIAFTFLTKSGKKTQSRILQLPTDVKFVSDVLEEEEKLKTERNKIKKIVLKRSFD

T8: Upf1-FL;Nmd4 (Saccharomyces cerevisiae;Saccharomyces …, UniProt P30771;Q12129 1-971;1-218, |)
T8 sequence 1: T1 sequence
T8 sequence 2: T4 sequence 2

B1: Nmd4-His (C-terminal His-tagged Nmd4) (natural protein)
chain: T4 sequence 2

Columns and labels:
[1] = target: T1, CBP-Upf1-FL (S.c. Upf1 full-length); experiment: pull-down
[2] = target: T2, CBP-Upf1-CH-HD; experiment: native gel or EMSA
[3] = target: T3, Dcp2-UBM; experiment: pull-down
[4] = target: T4, Upf1-FL;Nmd4;Dcp2-UBM; experiment: pull-down
[5] = target: T5, Upf1-FL;Dcp2-UBM; experiment: pull-down
[6] = target: T6, Upf1-FL; experiment: pull-down
[7] = target: T7, Upf2-Ct; experiment: pull-down
[8] = target: T8, Upf1-FL;Nmd4; experiment: pull-down

Row | Binder | binding result [1] | binding result [2] | binding result [3] | binding result [4] | binding result [5] | binding result [6] | binding result [7] | binding result [8]
1 | B1 | binds | binds | – | – | – | – | – | –
2 | CGUCCAUCUGGUCAUCUAGUGAUAUCAUCG (ssRNA) [3'-biotinylated RNA (30-mer in Methods, called 33-mer in Results)] | – | – | no binding | binds | binds | binds | no binding | binds
